Experimental data reported in the Human Domainome abundance scans (Beltran et al. 2025).
± gives the uncertainty stated by the source.

B1: POU domain, class 4, transcription factor 3, residues 185 to 256; numbered along this chain, Q15319 (parent)
chain: RELEAFAERFKQRRIKLGVTQADVGAALANLKIPGVGSLSQSTICRFESLTLSHNNMIALKPVLQAWLEEAE

Variants of: B1
Assay: abundance fitness (aPCA) (normalised: wild type 0, dead -1); higher = more abundant; growth selection in yeast, the domain comes from the species named
Conditions: Homo sapiens

Point of comparison: RELEAFAERFKQRRIKLGVTQADVGAALANLKIPGVGSLSQSTICRFESLTLSYNNMIALKPVLQAWLEEAE [H54Y], abundance fitness -0.027 ± 0.38. Against it:
- RELEAFAERFKQRRIKLGVTQADVGAALANLKIPGVGSLSQSTICRFESLTLSPNNMIALKPVLQAWLEEAE [H54P] — within error, 0.102 ± 0.28
- RELEAFAERFKQRRIKLGVTQADVGAALANLKIPGVGSLSQSTICRFESLWLSHNNMIALKPVLQAWLEEAE [T51W] — within error, -0.406 ± 0.036
- RELEAFAERFKQRRIKLGVTQADVGAALANLKIPGVGSLSQSTICRFESLALSHNNMIALKPVLQAWLEEAE [T51A] — within error, -0.041 ± 0.056
- RELEAFAERFKQRRIKLGVTQADVGAALANLKIPGVGSLSQSTICRFESLELSHNNMIALKPVLQAWLEEAE [T51E] — within error, -0.146 ± 0.29
- RELEAFAERFKQRRIKLGVTQADVGAALANLKIPGVGSLSQSTICRFESLHLSHNNMIALKPVLQAWLEEAE [T51H] — within error, -0.201 ± 0.21
- RELEAFAERFKQRRIKLGVTQADVGAALANLKIPGVGSLSQSTICRFESLFLSHNNMIALKPVLQAWLEEAE [T51F] — within error, -0.578 ± 0.31
- RELEAFAERFKQRRIKLGVTQADVGAALANLKIPGVGSLSQSTICRFESLRLSHNNMIALKPVLQAWLEEAE [T51R] — within error, 0.028 ± 0.058
- RELEAFAERFKQRRIKLGVTQADVGAALANLKIPGVGSLSQSTICRFESLGLSHNNMIALKPVLQAWLEEAE [T51G] — within error, -0.174 ± 0.077
- RELEAFAERFKQRRIKLGVTQADVGAALANLKIPGVGSLSQSTICRFESLQLSHNNMIALKPVLQAWLEEAE [T51Q] — within error, -0.074 ± 0.11
- RELEAFAERFKQRRIKLGVTQADVGAALANLKIPGVGSLSQSTICRFESLVLSHNNMIALKPVLQAWLEEAE [T51V] — within error, -0.112 ± 0.073
- RELEAFAERFKQRRIKLGVTQADVGAALANLKIPGVGSLSQSTICRFESLMLSHNNMIALKPVLQAWLEEAE [T51M] — within error, 0.096 ± 0.17
- RELEAFAERFKQRRIKLGVTQADVGAALANLKIPGVGSLSQSTICRFESLLLSHNNMIALKPVLQAWLEEAE [T51L] — within error, -0.13 ± 0.056
- RELEAFAERFKQRRIKLGVTQADVGAALANLKIPGVGSLSQSTICRFESLCLSHNNMIALKPVLQAWLEEAE [T51C] — within error, -0.121 ± 0.12
- RELEAFAERFKQRRIKLGVTQADVGAALANLKIPGVGSLSQSTICRFESLPLSHNNMIALKPVLQAWLEEAE [T51P] — lower, -1.19 ± 0.27
- RELEAFAERFKQRRIKLGVTQADVGAALANLKIPGVGSLSQSTICRFESLKLSHNNMIALKPVLQAWLEEAE [T51K] — within error, 0.111 ± 0.12
- RELEAFAERFKQRRIKLGVTQADVGAALANLKIPGVGSLSQSTICRFESLSLSHNNMIALKPVLQAWLEEAE [T51S] — within error, 0.056 ± 0.059
- RELEAFAERFKQRRIKLGVTQADVGAALANLKIPGVGSLSQSTICRFESLTLSHYNMIALKPVLQAWLEEAE [N55Y] — within error, -0.161 ± 0.2
- RELEAFAERFKQRRIKLGVTQADVGAALANLKIPGVGSLSQSTICRFESLTLSHSNMIALKPVLQAWLEEAE [N55S] — within error, -0.061 ± 0.23
- RELEAFAERFKQRRIKLGVTQADVGAALANLKIPGVGSLSQSTICRFESLTLQHNNMIALKPVLQAWLEEAE [S53Q] — within error, -0.403 ± 0.14
- RELEAFAERFKQRRIKLGVTQADVGAALANLKIPGVGSLSQSTICRFESLTLRHNNMIALKPVLQAWLEEAE [S53R] — within error, -0.229 ± 0.054
- RELEAFAERFKQRRIKLGVTQADVGAALANLKIPGVGSLSQSTICRFESLTLHHNNMIALKPVLQAWLEEAE [S53H] — within error, -0.174 ± 0.12
- RELEAFAERFKQRRIKLGVTQADVGAALANLKIPGVGSLSQSTICRFESLTLAHNNMIALKPVLQAWLEEAE [S53A] — within error, 0.025 ± 0.071
- RELEAFAERFKQRRIKLGVTQADVGAALANLKIPGVGSLSQSTICRFESLTLKHNNMIALKPVLQAWLEEAE [S53K] — within error, -0.222 ± 0.093
- RELEAFAERFKQRRIKLGVTQADVGAALANLKIPGVGSLSQSTICRFESLTLGHNNMIALKPVLQAWLEEAE [S53G] — within error, -0.061 ± 0.046
- RELEAFAERFKQRRIKLGVTQADVGAALANLKIPGVGSLSQSTICRFESLTLPHNNMIALKPVLQAWLEEAE [S53P] — within error, 0.042 ± 0.09
- RELEAFAERFKQRRIKLGVTQADVGAALANLKIPGVGSLSQSTICRFESLTLEHNNMIALKPVLQAWLEEAE [S53E] — within error, -0.065 ± 0.084
- RELEAFAERFKQRRIKLGVTQADVGAALANLKIPGVGSLSQSTICRFESLTLTHNNMIALKPVLQAWLEEAE [S53T] — within error, -0.208 ± 0.11
- RELEAFAERFKQRRIKLGVTQADVGAALANLKIPGVGSLSQSTICRFESLTLSHNNGIALKPVLQAWLEEAE [M57G] — lower, -0.634 ± 0.15
- RELEAFAERFKQRRIKLGVTQADVGAALANLKIPGVGSLSQSTICRFESLTLSHNNQIALKPVLQAWLEEAE [M57Q] — within error, -0.359 ± 0.12
- RELEAFAERFKQRRIKLGVTQADVGAALANLKIPGVGSLSQSTICRFESLTLSHNNRIALKPVLQAWLEEAE [M57R] — lower, -0.524 ± 0.089
- RELEAFAERFKQRRIKLGVTQADVGAALANLKIPGVGSLSQSTICRFESLTLSHNNLIALKPVLQAWLEEAE [M57L] — within error, -0.045 ± 0.42
- RELEAFAERFKQRRIKLGVTQADVGAALANLKIPGVGSLSQSTICRFESLTLSHNNTIALKPVLQAWLEEAE [M57T] — within error, -0.174 ± 0.096
- RELEAFAERFKQRRIKLGVTQADVGAALANLKIPGVGSLSQSTICRFESLTLSHNNAIALKPVLQAWLEEAE [M57A] — within error, -0.173 ± 0.11
- RELEAFAERFKQRRIKLGVTQADVGAALANLKIPGVGSLSQSTICRFESLTLSHNNVIALKPVLQAWLEEAE [M57V] — within error, -0.259 ± 0.19
- RELEAFAERFKQRRIKLGVTQADVGAALANLKIPGVGSLSQSTICRFESLTLSHNNSIALKPVLQAWLEEAE [M57S] — within error, -0.156 ± 0.14
- RELEAFAERFKQRRIKLGVTQADVGAALANLKIPGVGSLSQSTICRFEPLTLSHNNMIALKPVLQAWLEEAE [S49P] — lower, -0.957 ± 0.14
